Our source for the self-cleavage values is the RNAGym collection of RNA variant scans (doi:10.7554/elife.80360).

B1: CPEB3 Ribozyme (parent)
chain: GGGGGCCACAGCAGAAGCGUUCACGUCGCGGCCCCUGUCAGAUUCUGGUGAAUCUGCGAAUUCUGCUGU

Variants of B1 are the subject of this series. Nature of the series: self-cleavage, relative activity (ratio to wild type); higher = more cleavage; co-transcriptional.
As to GGGGGCCACAGCAGAAGCGUUCACGUCGCGGCCCCUGUCAGAUUCUGGUGAAUCUGCGAAAGCUGCUGU [U61A U62G], the self-cleavage was 0.646.

As to GGGGGCCACAGCAGAAGCGUUCACGUCGCGGCCCCUGUCAGAUUCUGGUGAAUCUGCGAAACCUGCUGU [U61A U62C], the self-cleavage worked out at 0.829.

GGGGGCCACAGCAGAAGCGUUCACGUCGCGGCCCCUGUCAGAUUCUGGUGAAUCUGCGAUUCCUGCUGU [A60U U62C]: the self-cleavage was determined as 0.492.

On to GGGGGCCACAGCAGAAGCGUUCACGUCGCGGCCCCUGUCAGAUUCUGGUGAAUCUGCGAUUACUGCUGU [A60U U62A], for which the self-cleavage was 0.551.

In the case of GGGGGCCACAGCAGAAGCGUUCACGUCGCGGCCCCUGUCAGAUUCUGGUGAAUCUGCGAAGUCUGGUGU [U61G C66G], the self-cleavage was found to be 0.538.

As for GGGGGCCACAGCAGAAGCGUUCACGUCGCGGCCCCUGUCAGAUUCUGGUGAAUCUGCGAAGUCUGAUGU [U61G C66A], the self-cleavage came to 0.495.

Take GGGGGCCACAGCAGAAGCGUUCACGUCGCGGCCCCUGUCAGAUUCUGGUGAAUCUGCGAAAUCUGCUGA [U61A U69A]: the self-cleavage amounted to 0.958.

On to GGGGGCCACAGCAGAAGCGUUCACGUCGCGGCCCCUGUCAGAUUCUGGUGAAUCUGCGAUUUCUGCUGC [A60U U69C], for which the self-cleavage was determined as 0.754.

For the variant GGGGGCCACAGCAGAAGCGUUCACGUCGCGGCCCCUGUCAGAUUCUGGUGAAUCUGCGAUUUCUGCUGG [A60U U69G], the self-cleavage was found to be 0.614.

In the case of GGGGGCCACAGCAGAAGCGUUCACGUCGCGGCCCCUGUCAGAUUCUGGUGAAUCUGCGAAGUCUGCUGG [U61G U69G], the self-cleavage worked out at 0.999.

Regarding GGGGGCCACAGCAGAAGCGUUCACGUCGCGGCCCCUGUCAGAUUCUGGUGAAUCUGCGAUUUUUGCUGU [A60U C63U], the self-cleavage was found to be 0.479.

With GGGGGCCACAGCAGAAGCGUUCACGUCGCGGCCCCUGUCAGAUUCUGGUGAAUCUGCGAUUUGUGCUGU [A60U C63G], the self-cleavage stood at 0.38.

Turning to GGGGGCCACAGCAGAAGCGUUCACGUCGCGGCCCCUGUCAGAUUCUGGUGAAUCUGCGAUUUAUGCUGU [A60U C63A], the self-cleavage turned out to be 0.391.

Consider GGGGGCCACAGCAGAAGCGUUCACGUCGCGGCCCCUGUCAGAUUCUGGUGAAUCUGCGAAGUCUGCUUU [U61G G68U], for which the self-cleavage was determined as 0.826.

Consider GGGGGCCACAGCAGAAGCGUUCACGUCGCGGCCCCUGUCAGAUUCUGGUGAAUCUGCGAAGUCUGCUAU [U61G G68A], for which the self-cleavage was 0.988.

In the case of GGGGGCCACAGCAGAAGCGUUCACGUCGCGGCCCCUGUCAGAUUCUGGUGAAUCUGCGAAGUCUGCUCU [U61G G68C], the self-cleavage was found to be 0.867.

As for GGGGGCCACAGCAGAAGCGUUCACGUCGCGGCCCCUGUCAGAUUCUGGUGAAUCUGCGAAUACUGCUGU [U62A], the self-cleavage came out at 0.957.

For GGGGGCCACAGCAGAAGCGUUCACGUCGCGGCCCCUGUCAGAUUCUGGUGAAUCUGCGAAGUCUGCUGU [U61G], the self-cleavage is 0.935.

For GGGGGCCACAGCAGAAGCGUUCACGUCGCGGCCCCUGUCAGAUUCUGGUGAAUCUGCGAAAUCUGCUGU [U61A], the self-cleavage came to 0.96.

Regarding GGGGGCCACAGCAGAAGCGUUCACGUCGCGGCCCCUGUCAGAUUCUGGUGAAUCUGCGAACUCUGCUGU [U61C], the self-cleavage amounted to 0.88.

GGGGGCCACAGCAGAAGCGUUCACGUCGCGGCCCCUGUCAGAUUCUGGUGAAUCUGCGAUGUCUGCUGU [A60U U61G]: the self-cleavage was 0.556.

As for GGGGGCCACAGCAGAAGCGUUCACGUCGCGGCCCCUGUCAGAUUCUGGUGAAUCUGCGAUCUCUGCUGU [A60U U61C], the self-cleavage is 0.629.

With GGGGGCCACAGCAGAAGCGUUCACGUCGCGGCCCCUGUCAGAUUCUGGUGAAUCUGCGAAGUCUACUGU [U61G G65A], the self-cleavage is 0.672.

Regarding GGGGGCCACAGCAGAAGCGUUCACGUCGCGGCCCCUGUCAGAUUCUGGUGAAUCUGCGAAGUCUUCUGU [U61G G65U], the self-cleavage was 0.483.

GGGGGCCACAGCAGAAGCGUUCACGUCGCGGCCCCUGUCAGAUUCUGGUGAAUCUGCGAAGUCUGCAGU [U61G U67A]: the self-cleavage was 0.841.

On to GGGGGCCACAGCAGAAGCGUUCACGUCGCGGCCCCUGUCAGAUUCUGGUGAAUCUGCGAAGUCUGCCGU [U61G U67C], for which the self-cleavage was 0.708.

Turning to GGGGGCCACAGCAGAAGCGUUCACGUCGCGGCCCCUGUCAGAUUCUGGUGAAUCUGCGAAUACAGCUGU [U62A U64A], the self-cleavage worked out at 0.452.

On to GGGGGCCACAGCAGAAGCGUUCACGUCGCGGCCCCUGUCAGAUUCUGGUGAAUCUGCGAAUACCGCUGU [U62A U64C], for which the self-cleavage amounted to 0.61.

As for GGGGGCCACAGCAGAAGCGUUCACGUCGCGGCCCCUGUCAGAUUCUGGUGAAUCUGCGAAUACUGCUCU [U62A G68C], the self-cleavage is 0.949.

As to GGGGGCCACAGCAGAAGCGUUCACGUCGCGGCCCCUGUCAGAUUCUGGUGAAUCUGCGAAUACUGCUAU [U62A G68A], the self-cleavage stood at 0.924.

For GGGGGCCACAGCAGAAGCGUUCACGUCGCGGCCCCUGUCAGAUUCUGGUGAAUCUGCGAAAUCAGCUGU [U61A U64A], the self-cleavage is 0.54.

Regarding GGGGGCCACAGCAGAAGCGUUCACGUCGCGGCCCCUGUCAGAUUCUGGUGAAUCUGCGAAAUCUGGUGU [U61A C66G], the self-cleavage is 0.44.

As to GGGGGCCACAGCAGAAGCGUUCACGUCGCGGCCCCUGUCAGAUUCUGGUGAAUCUGCGAAAUCUGAUGU [U61A C66A], the self-cleavage was determined as 0.386.

Regarding GGGGGCCACAGCAGAAGCGUUCACGUCGCGGCCCCUGUCAGAUUCUGGUGAAUCUGCGAAAUCUGCUUU [U61A G68U], the self-cleavage is 0.937.

For GGGGGCCACAGCAGAAGCGUUCACGUCGCGGCCCCUGUCAGAUUCUGGUGAAUCUGCGAAAUCUGCUCU [U61A G68C], the self-cleavage turned out to be 0.947.

On to GGGGGCCACAGCAGAAGCGUUCACGUCGCGGCCCCUGUCAGAUUCUGGUGAAUCUGCGAAUACUACUGU [U62A G65A], for which the self-cleavage is 0.546.

As to GGGGGCCACAGCAGAAGCGUUCACGUCGCGGCCCCUGUCAGAUUCUGGUGAAUCUGCGAACUCUGAUGU [U61C C66A], the self-cleavage came to 0.375.

On to GGGGGCCACAGCAGAAGCGUUCACGUCGCGGCCCCUGUCAGAUUCUGGUGAAUCUGCGAACUCUGGUGU [U61C C66G], for which the self-cleavage was 0.396.

Turning to GGGGGCCACAGCAGAAGCGUUCACGUCGCGGCCCCUGUCAGAUUCUGGUGAAUCUGCGAACUCUGUUGU [U61C C66U], the self-cleavage was 0.557.
